Measurements published in article PMC3017601 (Nucleic Acids Research, 2010).

Molecular target: the molecule itself
Test: SEC

B1: SMG-9 (natural protein)
chain: MSESGHSQPGLYGIERRRRWKEPGSGGPQNLSGPGGRERDYIAPWERERRDASEETSTSVMQKTPIILSKPPAERSKQPPPPTAPAAPPAPAPLEKPIVLMKPREEGKGPVAVTGASTPEGTAPPPPAAPAPPKGEKEGQRPTQPVYQIQNRGMGTAAPAAMDPVVGQAKLLPPERMKHSIKLVDDQMNWCDSAIEYLLDQTDVLVVGVLGLQGTGKSMVMSLLSANTPEEDQRTYVFRAQSAEMKERGGNQTSGIDFFITQERIVFLDTQPILSPSILDHLINNDRKLPPEYNLPHTYVEMQSLQIAAFLFTVCHVVIVVQDWFTDLSLYRFLQTAEMVKPSTPSPSHESSSSSGSDEGTEYYPHLVFLQNKARREDFCPRKLRQMHLMIDQLMAHSHLRYKGTLSMLQCNVFPGLPPDFLDSEVNLFLVPFMDSEAESENPPRAGPGSSPLFSLLPGYRGHPSFQSLVSKLRSQVMSMARPQLSHTILTEKNWFHYAARIWDGVRKSSALAEYSRLLA
  stoichiometry N: ~2
